The values that follow come from US20250020634A1.

For the test, the target named is NaV1.5-V5 (cardiac voltage-gated sodium channel alpha subunit, SCN5A). As to the kind of experiment: cell-based or functional assay.

In the case of “rat β1-V5-6×HIS (sodium channel beta-1 subunit, SCN1B) (from UniProt Q00954 19-218)”, the GV ΔV1/2 (mV), whole-cell patch clamp, BeHAPe cells, NaV1.5 + β1 was 6.7 mV; the GV ΔV1/2 (mV), whole-cell patch clamp, eHAP cells, NaV1.5 + β1 was 0.2 mV; the SSI ΔV1/2 (mV), whole-cell patch clamp, BeHAPe cells, NaV1.5 + β1 is 8.8 mV; the SSI ΔV1/2 (mV), whole-cell patch clamp, eHAP cells, NaV1.5 + β1 was found to be 3.2 mV. Further, the shift of GV V1/2 (fit to mean values, FIG. 5A), BeHAPe cells was 7.5 mV; the shift of SSI V1/2 (fit to mean values, FIG. 5A), BeHAPe cells stood at 7.5 mV; the Δτ inactivation at V1/2 (ms), whole-cell patch clamp, BeHAPe cells, NaV1.5 + β1 was -1.7 ms; the Δτ inactivation at V1/2 (ms), whole-cell patch clamp, eHAP cells, NaV1.5 + β1 was -0.3 ms.
Regarding “rat β2-HA (sodium channel beta-2 subunit, SCN2B) (from UniProt P54900 30-215)”, the GV ΔV1/2 (mV), whole-cell patch clamp, BeHAPe cells, NaV1.5 + β2 was -2.5 mV; the SSI ΔV1/2 (mV), whole-cell patch clamp, BeHAPe cells, NaV1.5 + β2 is -9.9 mV; the shift of SSI V1/2 (fit to mean values, FIG. 5B), BeHAPe cells is -5.9 mV; the Δτ inactivation at V1/2 (ms), whole-cell patch clamp, BeHAPe cells, NaV1.5 + β2 was -0.5 ms.
With “β1 & β2 (rat β1-V5-6×HIS and rat β2-HA simultaneously co-expressed) (from UniProt Q00954 19-157; P54900 30-157)”, the GV ΔV1/2 (mV), whole-cell patch clamp, BeHAPe cells, NaV1.5 + β1 & β2 amounted to 7.9 mV; the SSI ΔV1/2 (mV), whole-cell patch clamp, BeHAPe cells, NaV1.5 + β1 & β2 is 9.1 mV; the shift of GV V1/2 (fit to mean values, FIG. 5E), BeHAPe cells was determined as 9.3 mV; the shift of SSI V1/2 (fit to mean values, FIG. 5E), BeHAPe cells worked out at 13.4 mV. Also, the Δτ inactivation at V1/2 (ms), whole-cell patch clamp, BeHAPe cells, NaV1.5 + β1 & β2 came to 0 ms.

B1: Myelin protein zero (MPZ) (protein, UniProt P25189 1-248, looked up, species assumed)
chain: MAPGAPSSSPSPILAVLLFSSLVLSPAQAIVVYTDREVHGAVGSRVTLHCSFWSSEWVSDDISFTWRYQPEGGRDAISIFHYAKGQPYIDEVGTFKERIQWVGDPRWKDGSIVIHNLDYSDNGTFTCDVKNPPDIVGKTSQVTLYVFEKVPTRYGVVLGAVIGGVLGVVLLLLLLFYVVRYCWLRRQAALQRRLSAMEKGKLHKPGKDASKRGRQTPVLYAMLDHSRSTKAVSEKKAKGLGESRKDKK
modifications: full-length
As for B1, the GV ΔV1/2 (mV), whole-cell patch clamp, BeHAPe cells, NaV1.5 + MPZ was determined as 8.7 mV; the SSI ΔV1/2 (mV), whole-cell patch clamp, BeHAPe cells, NaV1.5 + MPZ stood at 6.3 mV; the shift of GV V1/2 (fit to mean values, FIG. 5F), BeHAPe cells turned out to be 7.4 mV; the shift of SSI V1/2 (fit to mean values, FIG. 5F), BeHAPe cells stood at 6.9 mV. Also, the Δτ inactivation at V1/2 (ms), whole-cell patch clamp, BeHAPe cells, NaV1.5 + MPZ stood at 0.2 ms.

B2: human β3 (sodium channel beta-3 subunit, SCN3B) (protein, UniProt Q9NY72 23-215, looked up)
chain: FPVCVEVPSETEAVQGNPMKLRCISCMKREEVEATTVVEWFYRPEGGKDFLIYEYRNGHQEVESPFQGRLQWNGSKDLQDVSITVLNVTLNDSGLYTCNVSREFEFEAHRPFVKTTRLIPLRVTEEAGEDFTSVVSEIMMYILLVFLTLWLLIEMIYCYRKVSKAEEAAQENASDYLAIPSENKENSAVPVEE
Consider B2, for which the GV ΔV1/2 (mV), whole-cell patch clamp, BeHAPe cells, NaV1.5 + β3 was found to be 8.8 mV; the SSI ΔV1/2 (mV), whole-cell patch clamp, BeHAPe cells, NaV1.5 + β3 is 9.1 mV; the shift of GV V1/2 (fit to mean values, FIG. 5C), BeHAPe cells came to 7.4 mV; the shift of SSI V1/2 (fit to mean values, FIG. 5C), BeHAPe cells was 9.4 mV. The Δτ inactivation at V1/2 (ms), whole-cell patch clamp, BeHAPe cells, NaV1.5 + β3 worked out at 0.4 ms.

B3: human β4 (sodium channel beta-4 subunit, SCN4B) (protein, UniProt Q8IWT1 31-228, looked up)
chain: LEVSVGKATDIYAVNGTEILLPCTFSSCFGFEDLHFRWTYNSSDAFKILIEGTVKNEKSDPKVTLKDDDRITLVGSTKEKMNNISIVLRDLEFSDTGKYTCHVKNPKENNLQHHATIFLQVVDRLEEVDNTVTLIILAVVGGVIGLLILILLIKKLIIFILKKTREKKKECLVSSSGNDNTENGLPGSKAEEKPPSKV
As to B3, the GV ΔV1/2 (mV), whole-cell patch clamp, BeHAPe cells, NaV1.5 + β4 worked out at 5.2 mV; the SSI ΔV1/2 (mV), whole-cell patch clamp, BeHAPe cells, NaV1.5 + β4 was 2.4 mV; the shift of GV V1/2 (fit to mean values, FIG. 5D), BeHAPe cells came out at 6.1 mV; the Δτ inactivation at V1/2 (ms), whole-cell patch clamp, BeHAPe cells, NaV1.5 + β4 was found to be 0.5 ms.
